Measured values: US20150225464A1 (Affibody, published 2015)

What was measured:
mouse serum albumin [1] = molecular target: T1, mouse serum albumin (mouse, UniProt P07724 25-608); experiment: SPR Biacore2000 sensorgrams
T1 construct: Bought; also called MSA
Protocol: (§1) The binding of the ABD variants obtained in Example 1 to human serum albumin (HSA), rat serum albumin (RSA), cynomolgus serum albumin (CSA) and mouse serum albumin (MSA) was analyzed by surface plasmon resonance using a Biacore2000 instrument.

rat serum albumin [2] = molecular target: T2, rat serum albumin (rat, UniProt P02770 25-608); experiment: SPR Biacore2000 sensorgrams
T2 construct: Bought; also called RSA
T2 sequence (P02770 25-608 limits assumed): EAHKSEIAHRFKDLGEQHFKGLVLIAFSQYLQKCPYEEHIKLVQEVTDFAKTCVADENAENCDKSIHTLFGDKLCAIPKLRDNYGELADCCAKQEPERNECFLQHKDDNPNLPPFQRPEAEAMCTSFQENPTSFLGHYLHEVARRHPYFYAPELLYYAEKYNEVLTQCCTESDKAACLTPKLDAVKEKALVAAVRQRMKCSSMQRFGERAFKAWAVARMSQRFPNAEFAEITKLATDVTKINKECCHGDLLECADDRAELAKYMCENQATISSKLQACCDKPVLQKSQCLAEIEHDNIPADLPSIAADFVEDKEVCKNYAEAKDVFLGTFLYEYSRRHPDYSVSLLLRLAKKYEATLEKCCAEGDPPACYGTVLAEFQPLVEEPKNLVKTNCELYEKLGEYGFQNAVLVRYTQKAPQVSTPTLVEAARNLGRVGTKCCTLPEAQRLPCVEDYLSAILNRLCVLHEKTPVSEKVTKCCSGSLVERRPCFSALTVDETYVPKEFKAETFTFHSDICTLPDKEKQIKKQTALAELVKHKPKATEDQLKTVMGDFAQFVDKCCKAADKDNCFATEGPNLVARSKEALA
Protocol: as §1

human serum albumin [3] = molecular target: T3, human serum albumin (human, UniProt P02768 25-609); experiment: SPR Biacore2000, HSA immobilized on CM-5, polypeptide as analyte, 1:1 Langmuir fit, relative values
T3 construct: Bought recombinant product; also called HSA; Albucult
T3 sequence (P02768 25-609 limits assumed): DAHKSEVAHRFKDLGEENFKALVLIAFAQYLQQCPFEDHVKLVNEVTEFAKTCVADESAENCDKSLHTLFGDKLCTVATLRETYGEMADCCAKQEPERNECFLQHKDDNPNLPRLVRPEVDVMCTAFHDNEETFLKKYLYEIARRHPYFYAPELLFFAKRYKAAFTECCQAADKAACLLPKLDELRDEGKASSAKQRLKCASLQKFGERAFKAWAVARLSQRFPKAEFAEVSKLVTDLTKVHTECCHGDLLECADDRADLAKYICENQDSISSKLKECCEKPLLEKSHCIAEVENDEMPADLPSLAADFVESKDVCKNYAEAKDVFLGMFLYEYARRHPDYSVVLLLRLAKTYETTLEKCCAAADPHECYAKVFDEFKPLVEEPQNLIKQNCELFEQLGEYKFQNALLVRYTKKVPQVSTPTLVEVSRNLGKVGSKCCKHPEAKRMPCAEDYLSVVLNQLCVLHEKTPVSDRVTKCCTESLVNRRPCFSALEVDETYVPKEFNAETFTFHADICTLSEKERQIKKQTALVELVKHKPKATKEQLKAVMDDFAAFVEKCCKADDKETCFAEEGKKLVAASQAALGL
Protocol: (§2) Biosensor analysis on a Biacore2000 instrument (GE Healthcare) was performed with HSA (Albucult®, Novozymes), CSA (purified in-house from cynomolgus serum), RSA (Sigma-Aldrich, Cat. No. A6272) and MSA (Sigma-Aldrich, Cat. No. A3559) immobilized by amine coupling onto the carboxylated dextran layer of the surfaces of CM-5 chips (research grade; GE Healthcare) according to the manufacturer's recommendations.
(§3) ABD variants were used as analytes and were injected in duplicates over the chip at three analyte concentrations (2.5, 10 and 40 nM). The association phase was 5 min followed by a long dissociation phase (60 min) to account at least partially for the slow off-rate of the ABD variants. […] Therefore, all KD's are given as relative KD values only.
(§4) After subtraction of reference surface and buffer injection, curves were fitted to a 1:1 (Langmuir) binding model using BlAevaluation software with correction for mass transfer and with RUmax set as a local parameter.

mouse serum albumin [4] = molecular target: T1, mouse serum albumin; experiment: SPR Biacore2000, albumin immobilized on CM-5, polypeptide as analyte, relative KD
Protocol: as §2, §3, §4

human serum albumin [5] = molecular target: T3, human serum albumin; experiment: as above
Protocol: as §2, §3, §4

cynomolgus serum albumin = molecular target: T4, cynomolgus serum albumin (cynomolgus); experiment: as above
T4 construct: Purified from serum; also called CSA
T4 sequence (A2V9Z4 25-608): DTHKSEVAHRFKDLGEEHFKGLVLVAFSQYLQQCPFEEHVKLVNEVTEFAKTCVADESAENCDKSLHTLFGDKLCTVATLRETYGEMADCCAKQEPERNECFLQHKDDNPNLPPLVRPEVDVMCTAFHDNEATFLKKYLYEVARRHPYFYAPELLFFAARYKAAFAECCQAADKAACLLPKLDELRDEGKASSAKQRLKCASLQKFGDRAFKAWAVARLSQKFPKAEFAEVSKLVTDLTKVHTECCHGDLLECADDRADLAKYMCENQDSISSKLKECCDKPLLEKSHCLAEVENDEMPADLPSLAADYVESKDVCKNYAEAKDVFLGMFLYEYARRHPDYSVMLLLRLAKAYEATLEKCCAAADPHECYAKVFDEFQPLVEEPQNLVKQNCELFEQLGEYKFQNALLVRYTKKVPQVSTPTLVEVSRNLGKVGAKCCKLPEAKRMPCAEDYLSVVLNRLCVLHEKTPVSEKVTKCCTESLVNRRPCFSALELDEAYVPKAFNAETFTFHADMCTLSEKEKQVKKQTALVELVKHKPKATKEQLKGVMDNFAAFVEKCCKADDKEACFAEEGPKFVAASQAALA
Protocol: as §2, §3, §4

rat serum albumin [6] = molecular target: T2, rat serum albumin; experiment: as above
Protocol: as §2, §3, §4

| Binder | binding result (mouse serum albumin [1]) | binding result (rat serum albumin [2]) | Kd (human serum albumin [3]) [pM] | koff (human serum albumin [3]) [s⁻¹] | kon (human serum albumin [3]) [M⁻¹ s⁻¹] | Kd (mouse serum albumin [4]) [pM] | Kd (human serum albumin [5]) [pM] | Kd (cynomolgus serum albumin) [pM] | Kd (rat serum albumin [6]) [pM] |
| --- | --- | --- | --- | --- | --- | --- | --- | --- | --- |
| GSSLAEAKVLANRELDKYGVSDFYKRLINKAKTVEGVEALKLHILAALP (designed binder, also called ABD variant; control polypeptide) [PEP06923] | binds | binds |  |  |  |  |  |  |  |
| GSSLAEAKEAANAELDSYGVSDFYKNLIDKAKTVEGVEALKDAILAALP (designed binder, R23N against PEP07843 (position counted on the 46-mer without GSS); Control polypeptide, expressed in E. coli; also called ABD variant; R23N variant of PEP07843) [PEP12379] | binds | binds | 14 | 2.36e-05 | 1.7e+06 |  |  |  |  |
| GSSLAEAKEAANAELDSYGVSDFYKKLIDKAKTVEGVEALKDAILAALP (designed binder, Inventive variant; 46 residues with an N-terminal GSS extension; R23K against PEP07843 (position counted on the 46-mer without GSS); Expressed in E. coli; also called ABD variant; R23K variant of PEP07843) [PEP12380] |  |  | 7.5 | 2.62e-05 | 3.48e+06 | 117 | 7.5 | 11 | 9.3 |
| GSSLAEAKEAANAELDSYGVSDFYKRLIDKAKTVEGVEALKDAILAALP (designed binder, single Arg at position 23 of the 46-mer; GSS extension at the N-terminus; also called ABD variant; control) [PEP07843] |  |  | 6.7 | 2.99e-05 | 4.49e+06 | 87 | 6.7 | 9.8 | 8.2 |
| GSSLAEAKEAANAELDSYGVSDFYKSLIDKAKTVEGVEALKDAILAALP (designed binder, Control polypeptide; 46 residues with an N-terminal GSS extension; R23S against PEP07843 (position counted on the 46-mer without GSS); Expressed in E. coli; also called ABD variant; R23S variant of PEP07843) [PEP12381] | binds | binds | 17 | 3.08e-05 | 1.83e+06 |  |  |  |  |
